According to the nanobody polyreactivity screen of Harvey et al. (2022):

Assay: yeast display, Sf9 membrane polyspecificity reagent, FACS + sequencing; frameworks hold sequencing errors
Outline: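 Using colony PCR, genes from sorted yeast display clones were amplified, then sequenced on MiSeq at 2 × 250 and filtered by CDR length. The clones had been stained with 10% biotinylated, detergent-solubilized Sf9 membrane reagent for 1 hour at 4 °C and sorted by FACS into low and high (top ~1%) gates on anti-HA and streptavidin fluorescence. Polyreactivity labels come from the gate of origin.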

Sequence	polyreactivity (PSR sort gate)
QVQLVESGGGLVQAGGSLRLSCAASGRIFLVYAMGRYRQAPGKERELVAAITSDGRTYYADSVKGRFTISRDNAKNTVYLQMNSLKPEDTAVYYCAADRYGAGYLYWPYDYWGQGTQVTVSS	low polyreactivity
QVQLVESGGGLVQTGGSLRLSCAASGIIFYYYAMGWYRQAPGKERELVAAISWSGDGTYYADSVKGRFTISRDNAKNTVYLQMNSLKPEDTAVYYCAALNDGFTAYDYLDEYTDYGYWGQGTQVTVSS	low polyreactivity
QVQLVESGGGLVQAGGSLRLSCAASGRNFRLNAMGWYRQAPGKERDLVARITGSYGGSTYYADSVKGRFTISRDNAKNTVSLQMISLKPEDSAGYYCADDGTGSYKGYYWGLGTQVTVSS	high polyreactivity
QVQLVESGGGLVQAGGSLRLSCAASGYTLSFNAMGWYRQAPGKARELVAGITYSGGSTYYSDSVKGRFTISRDNAKNTVYLQMTSLKPEDTAVYYCNKASGVYYGHLDYWGQGTQVTVSS	low polyreactivity
QVQLVESGGGLVQAGGSLRLSCSASRSTFPGYAMGWYRQAPGKERELVAAISVSGDRTYYADSVKRRFTISRDNPQNTVYLQMNRLKPEDTAVYYCAVRTRYRGSGVWVGNYSWGQGTQVTVSS	high polyreactivity
QVQLVEAGGGLVQAGGSLRLTCAASGSIISRYAMGWYRQAPGKEREFVAAISSSGGSTYYADSVKGRFTISRDNAKNTVDVQMNSLKPEDTAVYYCARYAYKVPIMGYWGQGTQVTVSS	high polyreactivity
QVQLVESGGGLVQAGGSLRLTCAASGFIFSLNAMGWYRQAPGKERELVAAISRCGVRTYYADSVKGRFSISRDNAKNTVYLQMNSLKPEDTAVYYCATAGPYYYYSGPQYDYWGQGTHVTVSS	high polyreactivity
QVQLVESGGGLVQAGGSLRLSCDASGRIFSENAMGWYRQAPGKERELVDAITGNGGDTYYADSVKGRFTISRDNAKNTVYLQMNSLKPEDTAVYYCAAVTGGLGGDYWGQGTQVTVSS	low polyreactivity
QVQLVESGGGLVQAGGSLRLSCAASGRTFPYKAMGWYRQAPGKERELVAVISSGGGRTYYADSVKGRFTISRDNAKNTVYLQMNSLKPEDTAVYYCNKGGYAIRYDYYWGQGTQVTVSS	high polyreactivity
QVQLVESGGGLVQAGGSLRISCAASGSIFVEYDMGWYRQAPGKERELVADISGTGNTYYADSVKGRFTISRDNAKNTVYLQMNSLKPEDTAVYYCAAGTYYQNYWSPFVWYDYWGQGTQVTVSS	high polyreactivity
QVQLVESGGGLVQAGGSLRLSCAASGSTFEKNAMGWYRQAPGKERELVAAISNGVSTYYADSVKGRFTISRDNAKNTVYLQMNSLKPEDTAVYYCAADLFFGAETVYYDKFDYWGQGTQVTVSS	low polyreactivity
QVQLVESGGGLVQAGGSLRLSCAASGRIFRGYAMGWYRQAPGKERELVAAITRGGSTKYADSVKGRFTISRDNAKNTVYLQMNSLKPEDTAVYYCAKDSYPYVPLYRSRSLYGYWGQGTQVTVSS	high polyreactivity
QVQLQESGGGLVQAGGSMRLSCAASGYNTIEVTRACFARRRAKNANLLPLLITVVLPIKRIAYNTISRDNAKNTVYLQMNSLKPEDTAVYNCAANTIGTDLYEYWGQGTQATVSS	low polyreactivity
QVQLVESGGGLVQAGGSLRVSCAASGSIFIRYAMGWYRQAPGKERELVAAIRSSGGSTYADSVKGRFTISRDNAKNTVYLQMISLKPEDTAVYYCAAGRSSKNSYSYPYYYWGQGTQVTVSS	high polyreactivity
QVQLVESGGGLVQAGGSLRLSCAASGRIFRRYAMGWYRQAPGKERELVAAISSTGGNTYYADSVKGRFTISRDNAKNTVYLQMNSLKPEDTAVYYCATRAFYLRGNGYWGQGTQVTVSS	high polyreactivity
QVQLVESGGGLVQAGGSLRLSCAASGFTFYAYAMGWYGQAPGKERELVAAITGRGGSTYYADSVKGRFTISRDNAKNTVYLQMNSLKPEDTAVYYCNKVKKSDKFNNFSNDYWGQGTQVTVSS	high polyreactivity
QVQLVESGGGLVQAGGSLRLSCAASGSTFAVYAMGWYRQAPGKVRELVAAMRYSGGSTYADSVKGRFTISRDNAKNTVYLQMNSLKPEDTAVYYCAAYVYSLGGEYGYWGQGTHVTVSS	high polyreactivity
QVQLVESGGGLVQAGGSLRLSCAASGSIFDPNAMGWYRQAPGKERELVANITNGGRTNYADSVKGRFTISRDNAKNTVYLQMNSLKPEDTAVYYCAKDSPFTSVTVLAPIIYDSWGQGTQVTVSS	low polyreactivity
QVQLVESGGGLVQAGGSLRLSCAASGSTIDYYAMGLYRQAPGKERELVAGISASGGSTYYADSEKGRFTISRDNAKNTVYLQMNSLKPEDTAVYYCASYYKPPGYDYWGQGTQVTVSS	low polyreactivity
QVQLEESGVGLVQAGGSLRLSCADSGFSFRTNAMGWYRQAPGKERELVAAISRSSGSTYYADSVKGRFTISRDNSKNTVYLQMNSMKPEETAVYYCNAVRYYSRGYTRYDYWGQGSQVTVSS	high polyreactivity

Sequence	polyreactivity (PSR sort gate)
QVQLVESGAGLVQAGGSLRLSCAASGSILYINTMGWYRQAPGKERELVAAITSSGGSTYYADSVKGRFTISRDNAKNTVDLQMNSLKPEDTAVYYCAAVGYYGGYNYWGQGTQVTVSS	low polyreactivity
QVQLVESGGGLVQAGGSLRLICAASGRTFYYYGMGWYRQAPGKERELVASITNGGNTNYADSVKGRFTISRDNAKNPVYLQKHSLYPEDTAVYYCAKDVPYWRPVVRYDYWGQGTQVTVSS	low polyreactivity
QVQLVDSVGGLVQAGGSLRLSCAASGFTFGVNVMGWYRQEPGKEREFVAAITWSGDSTYYADSVKGRFTISRDNAKNTVYLQMNSLKPEDSAVYYCAADGNTWPADFLSYYFEFDEYWGQGTQVTVSS	low polyreactivity
QVQLVESGGGLVQAGGSLRLRCAASGSIITRYAMGWYRQAPGKERDLVAAITASGGRTYYADSVKGRFTISRDNAKNTVYFQMNSLKPEDTAVYYCNTFWRYTSQLPYDYWGQGTQVNVSS	high polyreactivity
QVQLVESGGGLVQAGVSLRLSCASSGYTYHVYAMGWYRQAPGKERELVAAISTGDDTTFYADSVKVRFTISRDNAKNTVYLQMNSLKPEDTAVYYCAAAYGTPYGGYDYWGQGTQVTVSS	low polyreactivity
QVQLVESGGGLVQAGGSLRLSCAASGRILNSYAMGWYRQAPGKEREFVAAIRRSRGSPYYADSVKGRFTISRDNAKNTVYLQMNSLKPEETAVYYCAAGRRYSGSYDYWGQGTQVTVSS	high polyreactivity
QVQLLESGGVLVQAGGSLRLSCAASGFTFWYYAMGWYRQAPGKQRELVATITWNVGSTYYADSVKGRFTISRDNAKNTVYIQMNTLKPEDTAVYYCNKSYSRSSYWQYYYWGQGTQVTVSS	low polyreactivity
QVQLVESGGGLVQAGGSLRLSCAASGRIFIVNAMGWYRQAPGKERELVAAISYRGGSTYYADSVKGRFTISRDNAKNTVYLQMNSLKPEDTAVYYCNKDSTGDGYDYWGQGTQVTVSS	low polyreactivity
QVQLVESGGGLVQAGGSLRLSCAASGNTFWSYAMGWYRQAPGKERELVAAISFSGGSTNYADSVKGRFTISRDNAKNTVYLQMNSLKPEDTAVYYCAAYFYAPLTYYSWYDYWGQGTQVTVSS	high polyreactivity
QGQLVESGGGLVQAGGSLRLSCAASGFIFSSNAMGLYRHAPGKERELVAAISSSGGNTYYADSVKGRFTISRDNAKKTVDLQMNSLKPEDTAVYYCAADLSSAYGHDYWGLGTQVTVSS	low polyreactivity
QVQLVESGGGLVQAGGSLRISCAASGRIYVYNVMGWSRQAPGKETELVAAISWGTGSTYADSVKGRFTISRDNAKNTVYLQMNSLKPEDTAVYYCAAAADYYYDHDYWGQGTQVTVSS	low polyreactivity
QVQLVESGGGLVQAGGSLRLSCAASGRIFARNAMGWYRQAPGKERELVADITSTGSTNYADSVKGRFTISRDNAMNTVYLQMNSLKPEDTAVYYCAADYYTGYVWEDYYWGQGTQVTVSS	low polyreactivity
QVQLVESGGGLVQAGGSLPLSCAASGSIFVGYAMGWYRQAPGKERELVAAITNSGGRTYYADSVKGRFTISRDNAKNTVYLQMNSLKPEDTAVYYCNRVTGKYRYWVGFEYWGQGTQVTVSS	high polyreactivity
QVQLVESGGGLVQAGGSLRLSCAASGRTFVENAMGWYRQAPGKERELVAAITYRGGRTFYADSVKGRFTISRDNAKNTVYLQMNSLKPEDTAVYYCNAVRRTGGHGDYWGQGTQVTVSS	high polyreactivity
QVQLVESGGGLVQAGGSLRLSCAASGRTYGYNAMGWYRQAPGKERELVAAISRSGDSTYYADSVKGRFTISRDNAKNTVYLQMNSLKPEDTAVYYCATRYVTTGYDYWGQGTQVTVSS	low polyreactivity
QVQLVEAGGGLVQAGGSLRLSCAASGSTFKRYAMGWYRQAPGKERELVASISSGGSTNYADSVKGRFTISRDNAKNTVYLQMNSLKPEDTAVDYCAVSYRSFRYYWERYYSWGQGTQVTVSS	high polyreactivity
QVQLVESRGGLVQAGGSLRLSCAASGFTFSAYAMGWYRQAPGKERELVAAISWSGSRTYYADSVKGRFTISRDNAKNTVYLQMNSQKPEDTAVYYCAKEPYDTFGFYDYDYWGQGTQVTVSS	low polyreactivity
QVQLVESGVGLVQAGGSLRLSCASSGRTFYDYAMGWYRQAPGKERELVATISSRGDGTYYADSVKGRFTISRDYAKITVCLLMNSLKPEDTAVYYCAARYRRVHSGYGYWGQGTHVTVSS	high polyreactivity
QVQLVESGGGLDQAGGSLRLSCAAYGSTFAPNAMGGYRQSPGKERELVAAISSGSSTYYADSVKGRFTISRDNAKNTVNLQMNSLKPEDTAVYYCIARGLSSLSTIEDYCGQGTQVTVSS	high polyreactivity
QVQLVESGGGLVQAGGSLRLSCAASGLIFVSNAMGWYRQAPGKERELVAAISWSGSRTYYADSVKGRFTISRDNAKNTVYLQMNSLKPEDTAVYYCNAVRRGLPVVGAYDYWGQGTQVTVSS	high polyreactivity
